These results are taken from article PMC6135800, “STAT3-coordinated migration facilitates the dissemination of diffuse large B-cell lymphomas” (Nature Communications, 2018).

The target in this experiment is T1, FLAG-RhoGDI-γ (immobilized) (UniProt Q99819 1-225).
T1 construct: RhoGDIγ, full-length cDNA NM_001176 inserted into pFLAG-CMV2
T1 sequence (looked up): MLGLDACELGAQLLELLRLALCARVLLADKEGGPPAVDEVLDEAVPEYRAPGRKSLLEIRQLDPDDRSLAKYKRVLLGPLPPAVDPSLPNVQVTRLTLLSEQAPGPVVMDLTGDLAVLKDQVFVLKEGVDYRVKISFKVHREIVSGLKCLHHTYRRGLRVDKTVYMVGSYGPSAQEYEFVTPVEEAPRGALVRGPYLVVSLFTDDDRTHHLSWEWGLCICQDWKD
Kind of experiment: pull-down; competition assay: purified GST-RhoH and RhoA incubated with immobilized FLAG-RhoGDI-γ for 2 h; increasing doses of RhoH. As to conditions: both partners purified.

B1: GST-RhoH (natural protein, UniProt Q15669 1-191, looked up)
chain: MLSSIKCVLVGDSAVGKTSLLVRFTSETFPEAYKPTVYENTGVDVFMDGIQISLGLWDTAGNDAFRSIRPLSYQQADVVLMCYSVANHNSFLNLKNKWIGEIRSNLPCTPVLVVATQTDQREMGPHRASCVNAMEGKKLAQDVRAKGYLECSALSNRGVQQVFECAVRTAVNQARRRNRRRLFSINECKIF
notes: RhoH; the only GST vector named is pEBG-RhoH, made by inserting full-length cDNAs (RhoH: NM_001278369); also called GST-tagged RhoH; source: E. coli DH5α, IPTG induction, purified (glutathione-Sepharose, eluted with reduced glutathione)
On to B1, for which the binding result is recorded as “binds”.
